According to US8546337B2, “Self-assembling peptide nanoparticles useful as vaccines” (Alpha-O-Peptides AG, priority 2008, dated 2013):

Legend:
[1] = test system: DR1, DR2, DR4, DR5, DRw6, DR7 and DR9 molecules; settings: cited from earlier work
[2] = analytical ultracentrifugation of SAPN; assay type: physicochemical; settings: for MW / No. of monomers: SAPN
Protocol: Three conditions were tested for assembling nanoparticles from the monomeric building block SEQ ID NO:33. The molecular weight (MW) of the SAPN was assessed by analytical ultracentrifugation: The peptide was dissolved at 0.42 mg/ml, 0.34 mg/ml, and 0.21 mg/ml, in 150 mM NaCl, 20 mM Tris, pH 7.5. The measured MW corresponds to SAPN composed of about 330 monomers, i.e. a nanoparticle with more monomers than needed for a regular polyhedron with 60 asymmetric units (Table 23).

[3] = assay type: physicochemical; settings: DLS at pH 6.5
[4] = peptide 0.21 mg/ml in 150 mM NaCl, 20 mM Tris, pH 7.5
[5] = peptide 0.34 mg/ml in 150 mM NaCl, 20 mM Tris, pH 7.5
[6] = peptide 0.42 mg/ml in 150 mM NaCl, 20 mM Tris, pH 7.5

## CS.T3 peptide: 17 C-terminal amino acids of P. falciparum circum sporozoite protein CS with two cysteines replaced by alanines (RLLLRLEELERRLEELEKKIAKMEKASSVFNVVLAALRRRLEELAR; trimeric coiled coil with P. falciparum HTL epitope)
[1]
  pan DR activity in cell proliferation assay: stimulatory

B1: MGHHHHHHGDWKWDGGLVPRGSDEMLRELQETNAALQDVRELLRQQVKQITFLRALLMGGRLLARLEELERRLEELERRLEELERAINTVDLELAALRRRLEELAR (protein)
chain: MGHHHHHHGDWKWDGGLVPRGSDEMLRELQETNAALQDVRELLRQQVKQITFLRALLMGGRLLARLEELERRLEELERRLEELERAINTVDLELAALRRRLEELAR
modifications: building block comprising His-tag, COMP and P5c6
[2]; analytical ultracentrifugation
  molecular weight of the SAPN: about 4 MD
[2]; from measured MW, 150 mM NaCl, 20 mM Tris, pH 7.5
  number of monomers (peptide chains) per SAPN: about 330

B2: SEQ ID NO: 33 (protein)
chain: MGHHHHHHGDWKWDGGLVPRGSDEMLRELQETNAALQDVRELLRQQVKQITFLRALLMGGRLLARLEELERRLEELERRLEELERAINTVDLELAALRRRLEELAR
modifications: building block comprising His-tag, COMP and P5c6
[2]; [4]
  MW: 4066 kDa
  No. of monomers: 323
[2]; [5]
  MW: 4128 kDa
  No. of monomers: 328
[2]; [6]
  MW: 4331 kDa
  No. of monomers: 344

B3: MGHHHHHHASWKWDGGLVPRGSWQTWNAKWDQWSNDWNAWRSDWQAWKDDWAFWRALWMGGRLLLRLEELERRLEELEKKIAKMEKASSVFNVVLAALRRRLEELARGGSGANANPNANPNANPNANP (protein)
chain: MGHHHHHHASWKWDGGLVPRGSWQTWNAKWDQWSNDWNAWRSDWQAWKDDWAFWRALWMGGRLLLRLEELERRLEELEKKIAKMEKASSVFNVVLAALRRRLEELARGGSGANANPNANPNANPNANP
modifications: pentameric coiled coil with tryptophane zipper and trimeric coiled coil with P. falciparum HTL epitope
[3]
  particle diameter: 44.6 nm
  polydispersity index: 19.6%
